Test results published in patent US20240352144A1 (UNIVERSIT TSKLINIKUM HAMBURG EPPENDORF, published 2024).
Where a chain is given by its changes, count along the chain named. One block for each molecule: values may come before it.

Key:
human CD39 (gene ID 953) [1] = biological target: T1, human CD39 (gene ID 953) (human, UniProt P49961 5-510); test: flow cytometry binning on human CD39-expressing cells; competitor: human IgG hcAb SB24 (Fam. 1) in excess
T1 construct: Cell-surface form: transiently or stably transfected HEK cells, PBMCs, AML cell lines; also called native CD39; human CD39 transfected HEK cells
T1 sequence: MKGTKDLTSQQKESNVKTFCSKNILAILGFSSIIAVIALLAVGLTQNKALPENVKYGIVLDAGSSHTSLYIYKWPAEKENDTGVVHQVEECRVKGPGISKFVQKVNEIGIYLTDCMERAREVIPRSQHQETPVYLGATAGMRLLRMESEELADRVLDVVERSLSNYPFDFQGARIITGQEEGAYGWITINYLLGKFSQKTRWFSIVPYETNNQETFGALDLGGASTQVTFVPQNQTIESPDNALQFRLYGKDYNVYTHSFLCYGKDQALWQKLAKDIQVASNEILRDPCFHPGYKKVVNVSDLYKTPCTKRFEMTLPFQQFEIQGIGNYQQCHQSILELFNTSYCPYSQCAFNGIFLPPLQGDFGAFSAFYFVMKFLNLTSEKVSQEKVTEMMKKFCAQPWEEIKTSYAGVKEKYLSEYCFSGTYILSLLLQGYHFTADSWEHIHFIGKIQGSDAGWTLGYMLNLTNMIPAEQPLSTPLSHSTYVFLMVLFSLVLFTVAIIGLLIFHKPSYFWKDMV

human CD39 (gene ID 953) [2] = biological target: T1, human CD39 (gene ID 953); test: flow cytometry binning on human CD39-expressing cells; competitor: Fam. 2 human IgG hcAb in excess
human CD39 (gene ID 953) [3] = biological target: T1, human CD39 (gene ID 953); test: flow cytometry binning on human CD39-expressing cells; competitor: Fam. 3 human IgG hcAb (SB134) in excess
human CD39 (gene ID 953) [4] = biological target: T1, human CD39 (gene ID 953); test: flow cytometry binning on human CD39-expressing cells; competitor: Fam. 5 human IgG hcAb (SB136) in excess
[5] = biological target: T2, mouse CD39 (gene ID 12495) (mouse, UniProt P55772 1-510); test: Table 1 specificity; sorted by binding to human (h) and/or mouse (m) CD39
T2 construct: whole, on cells; also called murine CD39; mouse CD39 transfected HEK cells
T2 sequence (looked up): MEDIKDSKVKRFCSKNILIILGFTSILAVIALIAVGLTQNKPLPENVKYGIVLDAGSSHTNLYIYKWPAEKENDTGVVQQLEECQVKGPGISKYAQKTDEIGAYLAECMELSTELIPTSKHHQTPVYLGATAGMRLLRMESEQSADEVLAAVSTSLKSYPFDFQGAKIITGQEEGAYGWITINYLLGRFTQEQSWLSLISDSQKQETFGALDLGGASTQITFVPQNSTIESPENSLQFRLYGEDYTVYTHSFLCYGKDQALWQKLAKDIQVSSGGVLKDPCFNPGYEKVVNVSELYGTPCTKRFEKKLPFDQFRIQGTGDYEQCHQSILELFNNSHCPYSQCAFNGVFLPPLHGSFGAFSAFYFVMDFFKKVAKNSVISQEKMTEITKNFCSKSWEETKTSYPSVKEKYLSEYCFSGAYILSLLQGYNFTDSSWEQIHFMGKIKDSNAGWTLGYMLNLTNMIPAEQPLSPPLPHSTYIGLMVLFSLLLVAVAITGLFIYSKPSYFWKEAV

[6] = biological target: recombinant human CD39 ectodomain with C-terminal His6x tag (human) (UniProt P49961); test: BLI (Octet RED96), rabbit IgG hcAb on protein A biosensor, recombinant CD39 ectodomain as analyte at 200 ng/µl
[7] = biological target: T2, mouse CD39 (gene ID 12495); test: Table 1 specificity; binding to human (h) and/or mouse (m) CD39
human CD39 (gene ID 953) [8] = biological target: T1, human CD39 (gene ID 953); test: as above
human CD39 (gene ID 953) [9] = biological target: T1, human CD39 (gene ID 953); test: flow cytometry, rabbit IgG hcAb supernatant on transfected HEK cells
[10] = biological target: recombinant human CD39 ectodomain with C-terminal His6x tag (human) (UniProt P49961); test: BLI (Octet RED96), rabbit IgG hcAb on protein A biosensor, recombinant CD39 ectodomain as analyte

- percent inhibition of binding (human CD39 (gene ID 953) [1]): 17%
- percent inhibition of binding (human CD39 (gene ID 953) [2]): 8%
- percent inhibition of binding (human CD39 (gene ID 953) [3]): 5%
- percent inhibition of binding (human CD39 (gene ID 953) [4]): 75%
Molecule: monoclonal antibody against CD39, clone eBioA1

- koff [6]: 0.0015 s⁻¹
- binding result (human CD39 (gene ID 953) [9]): binds
B11: SB130 rabbit IgG hcAb (Fc fusion, not shown: a dimerising Fc or GST)
VHH: QVQLVESGGGSVQPGGSLKLSCAASGSISSINAMGWYRQAPGKQRELVAAITSGGYTNYADSVKGRFTISRDNAKNTVYLQMNSLKPEDTAVYYCNAIGGSTWFGEDEYDNWGQGTQVTVSS
notes: also called family 1

- koff [6]: 0.0011 s⁻¹
- binding result (human CD39 (gene ID 953) [9]): binds
B12: SB132 rabbit IgG hcAb (Fc fusion, not shown: a dimerising Fc or GST)
VHH: QVQLVESGGGLVQPGGSLRLSCAASGSIFNFNAMGWYRQASGKQRELVAAITSGGSTNYADSVKGRFTISRGNAKNTVYLQMNSLKPEDTAVYYCHGIGGSTWFGEEEYDSWGQGTQVTVSS
notes: also called family 1

- koff [6]: 0.00084 s⁻¹
- binding result (human CD39 (gene ID 953) [9]): binds
B13: SB131 rabbit IgG hcAb (Fc fusion, not shown: a dimerising Fc or GST)
VHH: QVQLVESGGGLVQPGGSLRLSCAASESIVSFNAMGWYRQAPGKQRDLVAAITSGGRTNYAESVKGRFTISRDDAKNTVYLQMNSLKPEDTAVYYCHAIGGSTWFGEDEPDYWGQGTQVTVSS
notes: also called family 1

- koff [10]: 0.05 s⁻¹
- koff [6]: 0.052 s⁻¹
- binding result (human CD39 (gene ID 953) [9]): binds
B15: SB129 rabbit IgG hcAb (Fc fusion, not shown: a dimerising Fc or GST)
VHH: QVQLVESGGGLVQAGDSLRLSCAASGRTPITTTTGWFRQAPGKEREFVAAIRWNSGDAAYADSAKGRFTISRDSAKNTLYLQMNNLEPEDTAVYYCAAKYSRYAPQSTDYDYWGQGTQVTVSS
notes: also called family 2

- koff [6]: 0.028 s⁻¹
- binding result (human CD39 (gene ID 953) [9]): binds
B16: SB127 rabbit IgG hcAb (Fc fusion, not shown: a dimerising Fc or GST)
VHH: B15 VHH with T28I, I30V, G35A, R52T, D57N, A58T, A59N, E87K, A104N, P105L
notes: also called family 2

- binding result [7]: binds
- binding result (human CD39 (gene ID 953) [8]): binds
B18: SB32 rabbit IgG hcAb (Fc fusion, not shown: a dimerising Fc or GST)
VHH: QVQLVESGGGLVQAGGSLRLSCAVSKRTSTHYAMGWFRQAPGLVREFVGVINWNGGTTYYADSVKGRFFISRDNAKNTMALQMNNLKPEDTAVYYCALKVDGLGLTSNEYQHWGQGTQVTVSS
notes: also called l- 14d; family 10

The remaining lines, values behind:

B1: SB137 rabbit IgG hcAb (Fc fusion, not shown: a dimerising Fc or GST)
VHH: QVKLQESGGGLGQAGGSLRLSCSASARTSATYVMGWFRQAPGKEREFVATISRSTSTTYYGDSVKGRFTISRDNAKNAVYLQMNSLKPEDTAVYYCATRAPRYGTASTRLSDYDNWGQGTQVTVSS
notes: also called s- 17; family 6
- percent inhibition of binding (human CD39 (gene ID 953) [1]): -11%
- binding result [5]: no binding
- percent inhibition of binding (human CD39 (gene ID 953) [2]): 93%
- percent inhibition of binding (human CD39 (gene ID 953) [3]): 95%
- percent inhibition of binding (human CD39 (gene ID 953) [4]): 39%

B2: SB135 rabbit IgG hcAb (Fc fusion, not shown: a dimerising Fc or GST)
VHH: QVKLQESGGGLVQAGGSLRLSCTASEESFNKYGVGWFRQAPGKERAFVVAIRPSGVITSYADSVKGRFTISRDSAKNTAYLQMNSLKPEDTALYYCAANSRNTNYYRPNGYDYWGRGTQVTVSS
notes: also called l- 15; family 4
- percent inhibition of binding (human CD39 (gene ID 953) [1]): 9%
- koff [6]: 0.03 s⁻¹
- binding result [5]: no binding
- percent inhibition of binding (human CD39 (gene ID 953) [2]): 46%
- percent inhibition of binding (human CD39 (gene ID 953) [3]): 53%
- percent inhibition of binding (human CD39 (gene ID 953) [4]): 37%

B3: SB112 rabbit IgG hcAb (Fc fusion, not shown: a dimerising Fc or GST)
VHH: QVQLQESGGGLVQAGGSLRLSCTASGRSFSSNAMGWFRQAPGKEREFVARINWSGSRTFYTDSVKGRFTISRDNAKNTMYLQMNSLKPEDTAVYYCAADPNYGSSITSGYTYWGQGTQVTVSS
notes: also called l- 14c; family 9
- binding result [7]: binds
- binding result (human CD39 (gene ID 953) [8]): binds

B4: SB90 rabbit IgG hcAb (Fc fusion, not shown: a dimerising Fc or GST)
VHH: QVQLVESGGGLVQAGGSLRLSCAVSGLNNYAIGWLRQAPGKEREGVSCINCFDDFTYYADSVKGRFTVSCDNANHTVNLEMNSLRPEDTAVYYCAAGTCGSWWRYTPTPADGAWGRGTQVTVSS
notes: also called s+ 17; family 8
- binding result [7]: binds
- binding result (human CD39 (gene ID 953) [8]): binds

B5: SB134 rabbit IgG hcAb (Fc fusion, not shown: a dimerising Fc or GST)
VHH: QVKLQESGGGWVQPGGSLRLSCAASGFTFRTHFMSWVRQAPGQGLEWVSGITSGGRTSYVDSVKGRFTISRDNAANTLYLQMNSLKPEDTAVYFCTKGDSGARGQGTQVTVSS
notes: also called l- 5a; family 3
- percent inhibition of binding (human CD39 (gene ID 953) [1]): 15%
- koff [6]: 0.012 s⁻¹
- binding result [5]: no binding
- percent inhibition of binding (human CD39 (gene ID 953) [3]): 58%
- percent inhibition of binding (human CD39 (gene ID 953) [4]): 41%

B6: SB39 rabbit IgG hcAb (Fc fusion, not shown: a dimerising Fc or GST)
VHH: QVQLVESGGGLVQPGGSLRLSCAASGFTLDYFAIGWFRQGPGKERDWVSCISKDGTTYYIDSVKGRFTISRDNAKNTGYLQMSGLKPDDTAVYYCARGAGGCQSDFGARGQGTQVTVSS
notes: also called l- 11; family 7
- percent inhibition of binding (human CD39 (gene ID 953) [1]): 39%
- binding result [7]: binds
- percent inhibition of binding (human CD39 (gene ID 953) [2]): 98%
- percent inhibition of binding (human CD39 (gene ID 953) [3]): 96%
- percent inhibition of binding (human CD39 (gene ID 953) [4]): 91%

B7: SB136 rabbit IgG hcAb (Fc fusion, not shown: a dimerising Fc or GST)
VHH: DVQLQASGGGLVQPGGSLRLSCAASGFRFSIYDMSWVRRPPGKGLEWVSSITSPGGTTYADSVKGRFTISRDNDKNTLYLQMNSLKPEDTAIYYCAKAYGGRSVVAQTARGQGTQVTVSS
notes: also called s- 12; family 5
- percent inhibition of binding (human CD39 (gene ID 953) [1]): -11%
- koff [6]: 0.0012 s⁻¹
- binding result [5]: no binding
- percent inhibition of binding (human CD39 (gene ID 953) [2]): 16%
- percent inhibition of binding (human CD39 (gene ID 953) [3]): 0%
- percent inhibition of binding (human CD39 (gene ID 953) [4]): 75%

B8: SB27 rabbit IgG hcAb (Fc fusion, not shown: a dimerising Fc or GST)
VHH: B12 VHH with N30S, S41P, G72D, H96N, E107D, S111Y
notes: also called family 1
- koff [6]: 0.0031 s⁻¹
- binding result (human CD39 (gene ID 953) [9]): binds

B9: SB24 rabbit IgG hcAb (Fc fusion, not shown: a dimerising Fc or GST)
VHH: B13 VHH with E26G, V29F, D46E, R56N, E61D, T68A, D73N, N83S, H96K, A97G
notes: Bivalent VHH-Fc heavy chain antibody; also called l- 14a; family 1
- percent inhibition of binding (human CD39 (gene ID 953) [1]): 99%
- koff [6]: 0.00099 s⁻¹
- binding result [5]: no binding
- percent inhibition of binding (human CD39 (gene ID 953) [2]): 39%
- percent inhibition of binding (human CD39 (gene ID 953) [3]): 40%
- percent inhibition of binding (human CD39 (gene ID 953) [4]): 53%

B10: SB28 rabbit IgG hcAb (Fc fusion, not shown: a dimerising Fc or GST)
VHH: B12 VHH with S41P, G72D, S111Y
notes: also called family 1
- koff [10]: 0.0003 s⁻¹
- koff [6]: 0.00039 s⁻¹
- binding result (human CD39 (gene ID 953) [9]): binds

B14: SB126 rabbit IgG hcAb (Fc fusion, not shown: a dimerising Fc or GST)
VHH: B15 VHH with T28I, I30V, G35A
notes: also called family 2
- koff [6]: 0.048 s⁻¹
- binding result (human CD39 (gene ID 953) [9]): binds

B17: SB128 rabbit IgG hcAb (Fc fusion, not shown: a dimerising Fc or GST)
VHH: B15 VHH with N54D, D57N, A58T, A59N, T78L, N84T, E87K, A104L
notes: also called l- 14b; family 2
- percent inhibition of binding (human CD39 (gene ID 953) [1]): 14%
- koff [6]: 0.011 s⁻¹
- binding result [5]: no binding
- percent inhibition of binding (human CD39 (gene ID 953) [2]): 86%
- percent inhibition of binding (human CD39 (gene ID 953) [3]): 88%
- percent inhibition of binding (human CD39 (gene ID 953) [4]): 42%
